The binders below were run against T1, AAV9 capsids (adeno-associated virus serotype 9, Assembled icosahedral capsid of about 60 subunits (VP1, VP2, VP3 from one gene). One VP1 chain is given. Example 1's screen does not say whether the capsids were full or empty.) (assay: ELISA, AAV9 capsids coated on plate, His-tagged variant in E. coli lysate, anti-His-HRP luminescence; signal relative to HSA (A) or to PKD2 control (B)).
T1 construct: Assembled virus capsid

Row | Binder | fold specificity for AAV9 capsids [fold]
1 | SEQ ID NO 44 (designed binder, N-terminal Met printed as (M)) MATGVRAVPGNENSLEIEELARFAVDEHNKKENALLEFVRMVKAKEQYISVDKWVATMYYLTLEAKDGGKKKLYEAKVWVKYGGSCWRGGNFKELQEFKPVGDA | > 3
2 | SEQ ID NO 30 (designed binder, N-terminal Met printed as (M)) MATGVRAVSGNENGLEIEELARFAVDEHNKKENALLEFVRVVKAKEQVVAGTMYYLTLEAKDGGKKKLYEAKVWVKRIVRVAVWVNFRELQEFKPVGDA | > 3
3 | MCWVKIFRCNIVGVCIVNTWVCDGRVDCSDPPDEGWCTPTP (designed binder, N-terminal Met printed as (M)) [SEQ ID NO 11] | > 3
4 | SEQ ID NO 53 (designed binder, N-terminal Met printed as (M)) MATGVRAVPGNENSLEIEELARFAVDEHNKKENALLEFVRVVKAKEQRARYYYVNRTMYYLTLEAKDGGKKKLYEAKVWVKWVIRGDSPANFKELQEFKLVGDA | > 3
5 | SEQ ID NO 26 (designed binder, N-terminal Met printed as (M)) MATGVRAVPGNENSLEIEELARFAVDEHNKKENALLEFVRVVKAKEQVVAGTMYYLTLEAKDGGKKKLYEAKVWVKIRAIVYWSGNFKELQEFKPVGDA | > 3
6 | SEQ ID NO 35 (designed binder, N-terminal Met printed as (M)) MATGVRAVPGNENSLEIEELARFAVDEHNKKENALLEFVRVVKAKEQVVAGTMYYLTLEAKDGGKKKLYEAKVWVKVRDIVSIRGNFKELQEFKPVGDA | > 3
7 | SEQ ID NO 45 (designed binder, N-terminal Met printed as (M)) MATGVRAVPGNENSLEIEELARFAVDEHNKKENALLEFVRVVKAKEQVVAGTMYYLTLEAKDGGKKKLYEAKVWVKVAAYPRASINFKELQEFKPVGDA | > 3
8 | SEQ ID NO 38 (designed binder, N-terminal Met printed as (M)) MATGVRAVPGNENSLEIEELARFAVDEHNKKENALLEFVRVVKAKEQVVAGTMYYLTLEAKDGGKKKLYEAKVWVKSASYYVYSYNFKELQEFKPVGDA | > 3
9 | SEQ ID NO 39 (designed binder, N-terminal Met printed as (M)) MATGVRAVPGNENSLEIEELARFAVDEHNKKENALLEFVRVVKAKEQVVAGTMYYLTLEAKDGGKKKLYEAKVWVKWRAVRWWWGNFKELQEFKPVGDA | > 3
10 | SEQ ID NO 48 (designed binder, N-terminal Met printed as (M)) MATGVRAVPGNENSLEIEELARFAVDEHNKKENALLEFVCVVKAKEQVVAGTMYYLTLEAKDGGKKKLYEAKVWVKVAPIYSVDSNFKELQEFKPVGDA | > 3
11 | SEQ ID NO 28 (designed binder, N-terminal Met printed as (M)) MATGVRAVPGNENSLEIEELARFAVDEHNKKENALLEFVRVVKAKEQVVAGTMYYLTLEAKDGGKKKLYEAKVWVKAGYIGRSKANFKELQEFKPVGDA | > 3
12 | SEQ ID NO 42 (designed binder, N-terminal Met printed as (M)) MATGVRAVPGNENSLEIEELARFAVDEHNKKENALLEFVRVVKAKEQVVAGTMYYLTLEAKDGGKKKLYEAKVWVKGRYSVYWYVNFKELQEFKPVGDA | > 3
13 | SEQ ID NO 43 (designed binder, N-terminal Met printed as (M)) MATGVRAVPGNENSLEIEELARFAVDEHNKKENALLEFVRVVKAKEQVVAGTMYYLTLEAKDGGKKKLYEAKVWVKVRYPPNIWKNFKELQEFKPVGDA | > 3
14 | SEQ ID NO 47 (designed binder, N-terminal Met printed as (M)) MATGVRAVPGNENSLEIEELARFAVDEHNKKENALLEFVRVVKAKEQVVAGTMYYLTLEAKDGGKKKLYEAKVWVKVNIYVISPRNFKELQEFKPVGDA | > 3
15 | SEQ ID NO 49 (designed binder, N-terminal Met printed as (M)) MATGVRAVPGNENSLEIEELARFAVDEHNKKENALLEFVRVVKAKEQVVAGTMYYLTLEAKDGGKKKLYEAKVWVKSVAIRNWYWNFKELQEFKPVGDA | > 3
16 | SEQ ID NO 34 (designed binder, N-terminal Met printed as (M)) MATGVRAVPGNENSLEIEELARFAVDEHNKKENALLEFVRVVKAKEQVVACTMYYLTLEAKDDGKKKLYEAKVWVKSRVRVIRWGNFKELQEFKPVGDA | > 3

Row | Binder | fold specificity for AAV9 capsids [fold]
17 | SEQ ID NO 41 (designed binder, N-terminal Met printed as (M)) MATGVRAVPGNENSLEIEELARFAVDEHNKKENALLEFVRVVKAKEQVVAGTMYYLTLEAKDGGKKKLYEAKVWVKARYVVYYRWNFKELQEFKPVGDA | > 3
18 | SEQ ID NO 46 (designed binder, N-terminal Met printed as (M)) MATGVRAVPGNENSLEIEELARFAVDEHNKKENALLEFVRVVKAKEQVVAGTMYYLTLEAKDGGKKKLYEAKVWVKIGIPIRIWSNFKELQEFKPVGDA | > 3
19 | SEQ ID NO 37 (designed binder, N-terminal Met printed as (M)) MATGVRAVSGNENSLEIEELARFAVDEHNKKENALLEFVRVVKAKEQVVAGTMYYLTLEAKDGGKKKLYEAKVWVKSPVYWPKGGNFKELQEFKPVGDA | > 3
20 | SEQ ID NO 33 (designed binder, N-terminal Met printed as (M)) MATGVRAVPGNENSLEIEELARFAVDEHNKKENALLEFVRVVKAKEQVVAGTMYYLTLEAKDGGKKKLYEAKVWVKVRRDIVVPRNFKELQEFKPVGDA | > 3
21 | SEQ ID NO 31 (designed binder, N-terminal Met printed as (M)) MATGVRAVPGNENSLEIEELARFAVDEHNKKENALLEFVRVVKAKEQVVAGTMYYLTLEAKDGGKKKLYEAKVWVKISRPGWWPWNFKELQEFKPVGDA | > 3
22 | SEQ ID NO 40 (designed binder, N-terminal Met printed as (M)) MATGVRAVPGNENSLEIEELARFAVDEHNKKENALLEFVRVVKAKEQVVAGTMYYLTLEAKDGGKKKLYEAKVWVKVVGKWWVNINFKELQEFKPVGDA | > 3
23 | SEQ ID NO 50 (designed binder, N-terminal Met printed as (M)) MATGVRAVPGNENSLEIEELARFAVDEHNKKENALLEFVRVVKAKEQVVAGTMYYLTLEAKDGGKKKLYEAKVWVKVRRYSPPNRNFKELQEFKPVGDA | > 3
24 | SEQ ID NO 29 (designed binder, N-terminal Met printed as (M)) MATGVRAVPGNENSLEIEELARFAVDEHNKKENALLEFVRVVKAKEQVVAGTMYYLTLEAKDGGKKKLYEAKVWVKAAGYYVYAPNFKELQEFKPVGDA | > 3
25 | SEQ ID NO 36 (designed binder, N-terminal Met printed as (M)) MATGVRAVPSNENSLEIEELARFAVDEHNKKENALLEFVRVVKAKEQVVAGTMYYLTLEAKDGGKKKLYEAKVWVKAIKYVRYKANFKELQEFKPVGDA | > 3
26 | SEQ ID NO 51 (designed binder, N-terminal Met printed as (M)) MATGVRAVPGNENSLEIEELARFAVDEHNKKENALLEFVRVVKAKEQVVAGTMYYLTLEAKDGGKKKLYEAKVWVKVRYWVDRRKNFKELQEFKPVGDA | > 3
27 | SEQ ID NO 27 (designed binder, N-terminal Met printed as (M)) MATGVRAVPGNENSLEIEELARFAVDEHNKKENALLEFVRVMKAKEQVVAGTMYYLTLEAKDGGKKKLYEAKVWVKGVIYAYSYSNFKELQEFKPVGDA | > 3
28 | SEQ ID NO 52 (designed binder, N-terminal Met printed as (M)) MATGVRAMPGNENSLEIEELARFAVDEHNKKENALLEFVRVVKAKEQVVAGTMYYLTLEAKDGGKKKLYEAKVWVKVWWVVSDPANFKELQEFKPVGDA | > 3
29 | SEQ ID NO 32 (designed binder, N-terminal Met printed as (M)) MATGVRAVPGNENSLEIEELARFAVDEHNKKENALLEFVRVVKAKEQVVAGTMYYLTLEAKDGGKKKLYEAKVWVKSRSVRIWYSNFKELQEFKPVGDA | > 3
30 | MCAIDNFPCNWYIDCIGATWVCDGIIDCIDIADEYDCTPTP (designed binder, N-terminal Met printed as (M)) [SEQ ID NO 12] | > 3
31 | MCDIPPFVCWWPSWCVWATWVCDGAPDCIDNYDEWICTPTP (designed binder, N-terminal Met printed as (M)) [SEQ ID NO 10] | > 3

Source: patent US20230391832A1 (ISOLERE BIO, published 2023)
